Patent US8013123B2 (B.R.A.H.M.S. GmbH, priority 2004, dated 2011)
Ends that are not written are not given here.

Columns and labels:
[1] = Stability of proenkephalin fragments and enkephalins ex vivo (plasma, liquor); assay type: in vitro ADME
Source text: In one embodiment the invention is based on and uses the discovered long term stability of proenkephalin and enkephalin-fp ex vivo in plasma (FIG. 3a). […] Proenkephalin and enkephalin-fp are stable as well in liquor.

B- and T-lymphocytes = conditions: cited from earlier work
[2] = test system: gram-positive bacteria like Streptococcus aureus, Bacillus megaterium and Micrococcus luteus; conditions: cited from earlier work
[3] = test system: gram-negative bacteria like Escherichia coli; conditions: cited from earlier work

## DAEEDDSLANSSDLLKELLETGDNRERSHHQDGSDNEEEVS [enkephalin-fp]
[1]; ex vivo in plasma
  half-life: > 24 h
[1]
  stability in liquor: stable

## methionine enkephalin [Met-ENK]
B- and T-lymphocytes
  proliferation: stimulates the proliferation

B1: proenkephalin: precursor of the enkephalins, Sequence ID 1, including its fragments (protein)
chain: ECSQDCATCSYRLVRFADINFLACVMECEGKLPSLKIWETCKELLQLSKPELPQDGTSTLRENSKPEESHLLAKRYGGFMKRYGGFMKKMDELYPMEPEEEANGSEILAKRYGGFMKKNAEEDDSLANSSDLLKELLETGDNRERSHHQDGSDNEEEVSKRYGGFMRGLKRSPQLEDEAKELQKRYGGFMRRVGRPEWWMDYQKRYGGFLKRFAEALPSDEEGESYSKEVPEMEKRYGGFMRF
[1]
  stability in liquor: stable
In vivo half-life
  in vivo half-life: about 24 hours

B2: Synenkephalin: PENK-A derived peptide with antibacterial properties (peptide, UniProt P01210 25-97, looked up)
Synenkephalin: ECSQDCATCSYRLVRPADINFLACVMECEGKLPSLKIWETCKELLQLSKPELPQDGTSTLRENSKPEESHLLA
modifications: Synenkephalin
[2]
  antibacterial function: antibacterial properties
[3]
  antibacterial function / growth inhibition: antibacterial properties
